Sequences and labels used below:
T1: human amylin 3(a) receptor (human calcitonin receptor + RAMP-3) (human, UniProt P30988 25-474; O60896 24-148)
T1 sequence (looked up) 1: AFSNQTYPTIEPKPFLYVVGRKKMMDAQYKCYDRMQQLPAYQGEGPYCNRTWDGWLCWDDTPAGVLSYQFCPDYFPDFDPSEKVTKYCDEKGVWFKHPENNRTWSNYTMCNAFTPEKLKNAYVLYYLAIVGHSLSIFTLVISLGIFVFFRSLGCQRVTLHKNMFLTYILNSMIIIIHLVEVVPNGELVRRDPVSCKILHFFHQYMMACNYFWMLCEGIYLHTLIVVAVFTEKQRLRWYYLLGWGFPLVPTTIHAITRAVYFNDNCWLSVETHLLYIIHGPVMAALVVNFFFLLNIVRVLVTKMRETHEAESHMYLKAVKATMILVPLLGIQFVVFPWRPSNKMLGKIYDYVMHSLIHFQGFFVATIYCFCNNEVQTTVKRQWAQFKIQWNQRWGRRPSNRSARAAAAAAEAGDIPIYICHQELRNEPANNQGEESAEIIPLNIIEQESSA
T1 sequence (looked up) 2: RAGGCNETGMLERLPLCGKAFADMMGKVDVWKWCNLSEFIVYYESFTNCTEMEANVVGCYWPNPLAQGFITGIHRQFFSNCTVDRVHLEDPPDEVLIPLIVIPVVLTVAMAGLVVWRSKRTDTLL

T2: human calcitonin (a) receptor (human, UniProt P30988 25-474)
T2 sequence (looked up): T1 sequence (looked up) 1

B1: N-alpha-[(S)-4-Carboxy-4-(19-carboxynonadecanoylamino)butyryl]-[Ser1,Glu14,His17,His35]-pramlintide (peptide)
peptide: {C20 diacid-γGlu}-SCNTATCATQRLAEFLHHSSNNFGPILPPTNVGSHTY-NH2
modifications: disulfide 2-7
SMILES: CC[C@H](C)[C@H](NC(=O)[C@@H]1CCCN1C(=O)CNC(=O)[C@H](Cc1ccccc1)NC(=O)[C@H](CC(N)=O)NC(=O)[C@H](CC(N)=O)NC(=O)[C@H](CO)NC(=O)[C@H](CO)NC(=O)[C@H](Cc1c[nH]cn1)NC(=O)[C@H](Cc1c[nH]cn1)NC(=O)[C@H](CC(C)C)NC(=O)[C@H](Cc1ccccc1)NC(=O)[C@H](CCC(=O)O)NC(=O)[C@H](C)NC(=O)[C@H](CC(C)C)NC(=O)[C@H](CCCNC(=N)N)NC(=O)[C@H](CCC(N)=O)NC(=O)[C@@H](NC(=O)[C@H](C)NC(=O)[C@@H]1CSSC[C@H](NC(=O)[C@H](CO)NC(=O)CC[C@H](NC(=O)CCCCCCCCCCCCCCCCCCC(=O)O)C(=O)O)C(=O)N[C@@H](CC(N)=O)C(=O)N[C@@H]([C@@H](C)O)C(=O)N[C@@H](C)C(=O)N[C@@H]([C@@H](C)O)C(=O)N1)[C@@H](C)O)C(=O)N[C@@H](CC(C)C)C(=O)N1CCC[C@H]1C(=O)N1CCC[C@H]1C(=O)N[C@H](C(=O)N[C@@H](CC(N)=O)C(=O)N[C@H](C(=O)NCC(=O)N[C@@H](CO)C(=O)N[C@@H](Cc1c[nH]cn1)C(=O)N[C@H](C(=O)N[C@@H](Cc1ccc(O)cc1)C(N)=O)[C@@H](C)O)C(C)C)[C@@H](C)O
B2: N-alpha-[(S)-4-Carboxy-4-(19-carboxynonadecanoylamino)butyryl]-Gly-[Arg1,Pro37]-pramlintide (peptide)
peptide: {C20 diacid-γGlu}-GRCNTATCATQRLANFLVHSSNNFGPILPPTNVGSNTP-NH2
modifications: disulfide 3-8
SMILES: CC[C@H](C)[C@H](NC(=O)[C@@H]1CCCN1C(=O)CNC(=O)[C@H](Cc1ccccc1)NC(=O)[C@H](CC(N)=O)NC(=O)[C@H](CC(N)=O)NC(=O)[C@H](CO)NC(=O)[C@H](CO)NC(=O)[C@H](Cc1c[nH]cn1)NC(=O)[C@@H](NC(=O)[C@H](CC(C)C)NC(=O)[C@H](Cc1ccccc1)NC(=O)[C@H](CC(N)=O)NC(=O)[C@H](C)NC(=O)[C@H](CC(C)C)NC(=O)[C@H](CCCNC(=N)N)NC(=O)[C@H](CCC(N)=O)NC(=O)[C@@H](NC(=O)[C@H](C)NC(=O)[C@@H]1CSSC[C@H](NC(=O)[C@H](CCCNC(=N)N)NC(=O)CNC(=O)CC[C@H](NC(=O)CCCCCCCCCCCCCCCCCCC(=O)O)C(=O)O)C(=O)N[C@@H](CC(N)=O)C(=O)N[C@@H]([C@@H](C)O)C(=O)N[C@@H](C)C(=O)N[C@@H]([C@@H](C)O)C(=O)N1)[C@@H](C)O)C(C)C)C(=O)N[C@@H](CC(C)C)C(=O)N1CCC[C@H]1C(=O)N1CCC[C@H]1C(=O)N[C@H](C(=O)N[C@@H](CC(N)=O)C(=O)N[C@H](C(=O)NCC(=O)N[C@@H](CO)C(=O)N[C@@H](CC(N)=O)C(=O)N[C@H](C(=O)N1CCC[C@H]1C(N)=O)[C@@H](C)O)C(C)C)[C@@H](C)O
B3: N-alpha-[(S)-4-Carboxy-4-(19-carboxynonadecanoylamino)butyryl]-[Gly1,Glu14,His17,His35]-pramlintide (peptide)
peptide: {C20 diacid-γGlu}-GCNTATCATQRLAEFLHHSSNNFGPILPPTNVGSHTY-NH2
modifications: disulfide 2-7
SMILES: CC[C@H](C)[C@H](NC(=O)[C@@H]1CCCN1C(=O)CNC(=O)[C@H](Cc1ccccc1)NC(=O)[C@H](CC(N)=O)NC(=O)[C@H](CC(N)=O)NC(=O)[C@H](CO)NC(=O)[C@H](CO)NC(=O)[C@H](Cc1c[nH]cn1)NC(=O)[C@H](Cc1c[nH]cn1)NC(=O)[C@H](CC(C)C)NC(=O)[C@H](Cc1ccccc1)NC(=O)[C@H](CCC(=O)O)NC(=O)[C@H](C)NC(=O)[C@H](CC(C)C)NC(=O)[C@H](CCCNC(=N)N)NC(=O)[C@H](CCC(N)=O)NC(=O)[C@@H](NC(=O)[C@H](C)NC(=O)[C@@H]1CSSC[C@H](NC(=O)CNC(=O)CC[C@H](NC(=O)CCCCCCCCCCCCCCCCCCC(=O)O)C(=O)O)C(=O)N[C@@H](CC(N)=O)C(=O)N[C@@H]([C@@H](C)O)C(=O)N[C@@H](C)C(=O)N[C@@H]([C@@H](C)O)C(=O)N1)[C@@H](C)O)C(=O)N[C@@H](CC(C)C)C(=O)N1CCC[C@H]1C(=O)N1CCC[C@H]1C(=O)N[C@H](C(=O)N[C@@H](CC(N)=O)C(=O)N[C@H](C(=O)NCC(=O)N[C@@H](CO)C(=O)N[C@@H](Cc1c[nH]cn1)C(=O)N[C@H](C(=O)N[C@@H](Cc1ccc(O)cc1)C(N)=O)[C@@H](C)O)C(C)C)[C@@H](C)O
B4: N-alpha-[(S)-4-Carboxy-4-(19-carboxynonadecanoylamino)butyryl]-[Ser1,Glu14,His17,Pro37]-pramlintide (peptide)
peptide: {C20 diacid-γGlu}-SCNTATCATQRLAEFLHHSSNNFGPILPPTNVGSNTP-NH2
modifications: disulfide 2-7
SMILES: CC[C@H](C)[C@H](NC(=O)[C@@H]1CCCN1C(=O)CNC(=O)[C@H](Cc1ccccc1)NC(=O)[C@H](CC(N)=O)NC(=O)[C@H](CC(N)=O)NC(=O)[C@H](CO)NC(=O)[C@H](CO)NC(=O)[C@H](Cc1c[nH]cn1)NC(=O)[C@H](Cc1c[nH]cn1)NC(=O)[C@H](CC(C)C)NC(=O)[C@H](Cc1ccccc1)NC(=O)[C@H](CCC(=O)O)NC(=O)[C@H](C)NC(=O)[C@H](CC(C)C)NC(=O)[C@H](CCCNC(=N)N)NC(=O)[C@H](CCC(N)=O)NC(=O)[C@@H](NC(=O)[C@H](C)NC(=O)[C@@H]1CSSC[C@H](NC(=O)[C@H](CO)NC(=O)CC[C@H](NC(=O)CCCCCCCCCCCCCCCCCCC(=O)O)C(=O)O)C(=O)N[C@@H](CC(N)=O)C(=O)N[C@@H]([C@@H](C)O)C(=O)N[C@@H](C)C(=O)N[C@@H]([C@@H](C)O)C(=O)N1)[C@@H](C)O)C(=O)N[C@@H](CC(C)C)C(=O)N1CCC[C@H]1C(=O)N1CCC[C@H]1C(=O)N[C@H](C(=O)N[C@@H](CC(N)=O)C(=O)N[C@H](C(=O)NCC(=O)N[C@@H](CO)C(=O)N[C@@H](CC(N)=O)C(=O)N[C@H](C(=O)N1CCC[C@H]1C(N)=O)[C@@H](C)O)C(C)C)[C@@H](C)O
B5: N-alpha-[(S)-4-Carboxy-4-(19-carboxynonadecanoylamino)butyryl]-[des1,Glu14,Pro37]-pramlintide (peptide)
peptide: {C20 diacid-γGlu}-CNTATCATQRLAEFLVHSSNNFGPILPPTNVGSNTP-NH2
modifications: disulfide 1-6
SMILES: CC[C@H](C)[C@H](NC(=O)[C@@H]1CCCN1C(=O)CNC(=O)[C@H](Cc1ccccc1)NC(=O)[C@H](CC(N)=O)NC(=O)[C@H](CC(N)=O)NC(=O)[C@H](CO)NC(=O)[C@H](CO)NC(=O)[C@H](Cc1c[nH]cn1)NC(=O)[C@@H](NC(=O)[C@H](CC(C)C)NC(=O)[C@H](Cc1ccccc1)NC(=O)[C@H](CCC(=O)O)NC(=O)[C@H](C)NC(=O)[C@H](CC(C)C)NC(=O)[C@H](CCCNC(=N)N)NC(=O)[C@H](CCC(N)=O)NC(=O)[C@@H](NC(=O)[C@H](C)NC(=O)[C@@H]1CSSC[C@H](NC(=O)CC[C@H](NC(=O)CCCCCCCCCCCCCCCCCCC(=O)O)C(=O)O)C(=O)N[C@@H](CC(N)=O)C(=O)N[C@@H]([C@@H](C)O)C(=O)N[C@@H](C)C(=O)N[C@@H]([C@@H](C)O)C(=O)N1)[C@@H](C)O)C(C)C)C(=O)N[C@@H](CC(C)C)C(=O)N1CCC[C@H]1C(=O)N1CCC[C@H]1C(=O)N[C@H](C(=O)N[C@@H](CC(N)=O)C(=O)N[C@H](C(=O)NCC(=O)N[C@@H](CO)C(=O)N[C@@H](CC(N)=O)C(=O)N[C@H](C(=O)N1CCC[C@H]1C(N)=O)[C@@H](C)O)C(C)C)[C@@H](C)O
B6: N-alpha-[(S)-4-Carboxy-4-(19-carboxynonadecanoylamino)butyryl]-[des1,Glu14,His17,Pro37]-pramlintide (peptide)
peptide: {C20 diacid-γGlu}-CNTATCATQRLAEFLHHSSNNFGPILPPTNVGSNTP-NH2
modifications: disulfide 1-6
SMILES: CC[C@H](C)[C@H](NC(=O)[C@@H]1CCCN1C(=O)CNC(=O)[C@H](Cc1ccccc1)NC(=O)[C@H](CC(N)=O)NC(=O)[C@H](CC(N)=O)NC(=O)[C@H](CO)NC(=O)[C@H](CO)NC(=O)[C@H](Cc1c[nH]cn1)NC(=O)[C@H](Cc1c[nH]cn1)NC(=O)[C@H](CC(C)C)NC(=O)[C@H](Cc1ccccc1)NC(=O)[C@H](CCC(=O)O)NC(=O)[C@H](C)NC(=O)[C@H](CC(C)C)NC(=O)[C@H](CCCNC(=N)N)NC(=O)[C@H](CCC(N)=O)NC(=O)[C@@H](NC(=O)[C@H](C)NC(=O)[C@@H]1CSSC[C@H](NC(=O)CC[C@H](NC(=O)CCCCCCCCCCCCCCCCCCC(=O)O)C(=O)O)C(=O)N[C@@H](CC(N)=O)C(=O)N[C@@H]([C@@H](C)O)C(=O)N[C@@H](C)C(=O)N[C@@H]([C@@H](C)O)C(=O)N1)[C@@H](C)O)C(=O)N[C@@H](CC(C)C)C(=O)N1CCC[C@H]1C(=O)N1CCC[C@H]1C(=O)N[C@H](C(=O)N[C@@H](CC(N)=O)C(=O)N[C@H](C(=O)NCC(=O)N[C@@H](CO)C(=O)N[C@@H](CC(N)=O)C(=O)N[C@H](C(=O)N1CCC[C@H]1C(N)=O)[C@@H](C)O)C(C)C)[C@@H](C)O

This is an account of results in patent US20130005646A1 (Novo Nordisk, published 2013).

Starred links: 1 amine or outer side, 2 acyl side, 3 side chain; linkers in the order of their positions; H or OH if unused. Positions of bridges follow the written chain, without caps; N, C: chain ends. *: point of attachment. C20 diacid = O=C(O)CCCCCCCCCCCCCCCCCCC(=O)*; γGlu = O=C(O)[C@H](CCC(=O)[*:2])N[*:1]

One test deals with T1, human amylin 3(a) receptor (human …). The experiment in a line: cell-based or functional assay.
As for B1, the “Amylin receptor human EC50” value is 0.225 nM.
B2: the “Amylin receptor human EC50” value was found to be 0.0525 nM.
Same read-out and setting: the figure for B3 is 0.208 nM; for B4 it is 0.0625 nM.
Still for that read-out and setting: the figure for B5 is 0.088 nM.
Consider B6, for which the “Amylin receptor human EC50” value worked out at 0.0795 nM.

In a further test the target is T2, human calcitonin (a) receptor. The experiment in a line: cell-based or functional assay.
On to B1, for which the “CTa receptor human EC50” value amounted to 0.171 nM.
As for B2, the “CTa receptor human EC50” value amounted to 0.075 nM.
Same read-out and setting: the figure for B3 is 0.161 nM; for B4 it is 0.0705 nM.
Consider B5, for which the “CTa receptor human EC50” value is 0.0735 nM.
The same measure, in the same setting: the result for B6 reads 0.106 nM.
